For the assay, the target named is integrin α5 on preosteoblastic MC3T3-E1 cells (mouse (endogenous in MC3T3-E1)) (UniProt P11688).
UniProt P11688, sequence (P11688 45-1053): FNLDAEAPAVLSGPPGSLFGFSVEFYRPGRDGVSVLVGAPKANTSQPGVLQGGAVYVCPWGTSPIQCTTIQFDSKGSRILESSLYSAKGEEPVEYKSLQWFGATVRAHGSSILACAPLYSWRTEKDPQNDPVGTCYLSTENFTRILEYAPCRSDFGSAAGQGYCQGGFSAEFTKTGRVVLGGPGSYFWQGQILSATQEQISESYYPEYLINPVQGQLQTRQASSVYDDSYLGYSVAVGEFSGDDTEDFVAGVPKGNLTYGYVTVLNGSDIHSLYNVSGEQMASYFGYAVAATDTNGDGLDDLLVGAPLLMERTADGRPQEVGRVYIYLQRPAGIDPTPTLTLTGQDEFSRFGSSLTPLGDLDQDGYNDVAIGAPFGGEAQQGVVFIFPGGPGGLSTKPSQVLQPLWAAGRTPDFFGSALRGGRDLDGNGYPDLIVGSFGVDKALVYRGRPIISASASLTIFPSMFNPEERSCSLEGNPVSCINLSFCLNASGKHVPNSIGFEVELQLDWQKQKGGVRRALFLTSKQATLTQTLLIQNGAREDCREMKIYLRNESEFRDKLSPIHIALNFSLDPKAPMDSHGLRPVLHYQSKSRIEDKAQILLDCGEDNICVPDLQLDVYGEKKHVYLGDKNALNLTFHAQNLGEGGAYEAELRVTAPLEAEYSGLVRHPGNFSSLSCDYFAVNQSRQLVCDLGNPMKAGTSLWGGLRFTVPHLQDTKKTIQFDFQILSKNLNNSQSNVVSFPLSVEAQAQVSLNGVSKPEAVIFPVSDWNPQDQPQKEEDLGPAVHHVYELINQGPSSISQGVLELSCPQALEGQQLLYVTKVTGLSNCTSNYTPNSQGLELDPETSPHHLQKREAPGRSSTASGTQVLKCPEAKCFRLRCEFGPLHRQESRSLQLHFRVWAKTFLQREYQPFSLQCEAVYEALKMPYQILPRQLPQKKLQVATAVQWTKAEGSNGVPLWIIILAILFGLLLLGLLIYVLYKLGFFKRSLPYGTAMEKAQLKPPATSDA

With “connective tissue growth factor (CTGF), recombinant (from UniProt P29279 27-349) (ligand)”, the forward migration index (FMI) of MC3T3-E1 cells toward a gradient of 150 ng/ml CTGF with neutralizing integrin α5 antibody (5 μg/ml pretreatment, 15 μg/ml in the reservoir), 12 h turned out to be 0.02; the forward migration index (FMI) of MC3T3-E1 cells toward a gradient of 150 ng/ml CTGF, μ-slide chemotaxis chamber, 12 h, CTGF group without antibody is 0.5; the migration distance of MC3T3-E1 cells toward a gradient of 150 ng/ml CTGF with neutralizing integrin α5 antibody, 12 h was 129 μm; the migration distance of MC3T3-E1 cells toward a gradient of 150 ng/ml CTGF, 12 h, CTGF group without antibody was 162 μm. The velocity of MC3T3-E1 cells migrating toward a gradient of 150 ng/ml CTGF with neutralizing integrin α5 antibody, 12 h was determined as 0.25 μm/min and the velocity of MC3T3-E1 cells migrating toward a gradient of 150 ng/ml CTGF, 12 h, CTGF group without antibody came out at 0.32 μm/min.
